Here are results for 2 molecules from patent US20120070434A1.

Experiment [1] has as its target Recombinant TPO receptor (R&D Systems). The experiment in a line: BLI (Octet), biotinylated TPO receptor on streptavidin probe, second experiment.
Experiment [2] has the same target.

Where two headings read alike, the source gives them in different places.

One may read the Kd as the constant that tells how readily two partners part at equilibrium. Turning to “recombinant human thrombopoietin (from UniProt P40225 22-353) (ligand)”, in experiment [1], the Kd was found to be 3 nM.

B1: HC+LC-TPO antibody (antibody)
heavy: QVQLVQSGAEVKKPGASVKVSCKASGYTFTYYAMHWVRQAPGQRPEWMGWINGGDGKTKYAQKFQGRLAITRDTSARTAYMELISLTSEDTAVYYCAKGAEMTVGSWGPGTLVTVSSASTKGPSVFPLAPCSRSTSESTAALGCLVKDYFPEPVTVSWNSGALTSGVHTFPAVLQSSGLYSLSSVVTVPSSNFGTQTYTCNVDHKPSNTKVDKTVERKCCVECPPCPAPPVANPIEGPTLRQWLAARARGGPSVFLFPPKPKDTLMISRTPEVTCVVVDVSQEDPEVQFNWYVDGVEVHNAKTKPREEQFNSTYRVVSVLTVLHQDWLNGKEYKCKVSNKGLPSSIEKTISKAKGQPREPQVYTLPPSQEEMTKNQVSLTCLVKGFYPSDIAVEWESNGQPENNYKTTPPVLDSDGSFFLYSRLTVDKSRWQEGNVFSCSVMHEALHNHYTQKSLSLSLGK
light: DIQMTQSPSSLSASVGDRVTLTCRASQGVRNALVWYQQKPGKAPERLIYAASILQSGVPSRFSGSGSGTEFTLTIGGLQPEDFATYYCLQHNSYPWTFGQGTKVEIKRTVAAPSVFIFPPSDEQLKSGTASVVCLLNNFYPREAKVQWKVDNALQSGNSQESVTEQDSKDSTYSLSSTLTLSKADYEKHKVYACEVTHQGLSSPVTKSFNRGECARSLIEGPTLRQWLAARAPI
B1: the Kd in experiment [1] came to 3 nM; in experiment [2], 2.32 nM.
